Test system: Escherichia coli TOP10
Experiment: shrunken log2 fold change of peptide-encoding DNA abundance (4.5 h post-induction vs induction); higher = less antimicrobial activity (less host growth inhibition)
Details: time post-induction: 4.5 h; library: site-saturation at positions 5, 18, 19, 20
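Note: peptides expressed intracellularly from a pBAD plasmid library in pooled LB shake-flask culture, induced with 0.3% L-arabinose, DNA abundance read by NGS, three biological replicates, DESeq2 with apeglm shrinkage.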

| Sequence | shrunken log2 fold change |
| --- | --- |
| RRIRGRPPRLPRPRPRPWQHPRP | -0.0318 |
| RRIRNRPPRLPRPRPRPIQQPRP | -0.000431 |
| RRIRGRPPRLPRPRPRPWGDPRP | 0.41 |
| RRIRHRPPRLPRPRPRPEIGPRP | 0.103 |
| RRIRLRPPRLPRPRPRPWLSPRP | -0.0106 |
| RRIRWRPPRLPRPRPRPVYTPRP | -0.242 |
| RRIRQRPPRLPRPRPRPRHWPRP | 0.218 |
| RRIRWRPPRLPRPRPRPRFEPRP | 0.225 |
| RRIRPRPPRLPRPRPRPGGKPRP | 0.12 |
| RRIRGRPPRLPRPRPRPVHRPRP | -0.0492 |
| RRIRSRPPRLPRPRPRPLENPRP | -0.0294 |
| RRIRVRPPRLPRPRPRPCHAPRP | -0.311 |
| RRIRCRPPRLPRPRPRPYTEPRP | -1.42 |
| RRIRVRPPRLPRPRPRPGYKPRP | -0.222 |
| RRIRLRPPRLPRPRPRPMDTPRP | -0.323 |
| RRIRMRPPRLPRPRPRPDNKPRP | -0.336 |
| RRIRCRPPRLPRPRPRPSTSPRP | -0.282 |
| RRIRGRPPRLPRPRPRPAMYPRP | 0.369 |
| RRIRYRPPRLPRPRPRPERNPRP | 0.00677 |
| RRIRDRPPRLPRPRPRPVCKPRP | -0.0246 |
| RRIRRRPPRLPRPRPRPGNIPRP | -0.0618 |
| RRIRTRPPRLPRPRPRPGLMPRP | 0.0921 |
| RRIRLRPPRLPRPRPRPWCQPRP | -0.0199 |
| RRIRWRPPRLPRPRPRPPKPPRP | 0.648 |
| RRIRARPPRLPRPRPRPEGSPRP | 0.805 |

| Sequence | shrunken log2 fold change |
| --- | --- |
| RRIRVRPPRLPRPRPRPINVPRP | -0.342 |
| RRIRDRPPRLPRPRPRPPKPPRP | 0.214 |
| RRIRQRPPRLPRPRPRPWSYPRP | -0.106 |
| RRIRVRPPRLPRPRPRPNTFPRP | -0.521 |
| RRIRTRPPRLPRPRPRPGDPPRP | 0.106 |
| RRIRSRPPRLPRPRPRPMYMPRP | -0.387 |
| RRIRQRPPRLPRPRPRPPHIPRP | 0.213 |
| RRIRERPPRLPRPRPRPYSLPRP | -0.0204 |
| RRIRQRPPRLPRPRPRPMQFPRP | 0.0624 |
| RRIRDRPPRLPRPRPRPHEAPRP | 0.151 |
| RRIRERPPRLPRPRPRPWRDPRP | -0.268 |
| RRIRRRPPRLPRPRPRPKPWPRP | 0.274 |
| RRIRARPPRLPRPRPRPYALPRP | 0.0681 |
| RRIRSRPPRLPRPRPRPPTRPRP | 0.651 |
| RRIRKRPPRLPRPRPRPPPPPRP | 1.23 |
| RRIRTRPPRLPRPRPRPTLRPRP | -0.023 |
| RRIRLRPPRLPRPRPRPEKSPRP | 0.123 |
| RRIRERPPRLPRPRPRPMCGPRP | -0.0439 |
| RRIRGRPPRLPRPRPRPGGGPRP | 1.33 |
| RRIRIRPPRLPRPRPRPMILPRP | -0.131 |
| RRIRNRPPRLPRPRPRPHLTPRP | -0.0934 |
| RRIRLRPPRLPRPRPRPDVIPRP | -0.161 |
| RRIRMRPPRLPRPRPRPCPFPRP | -0.241 |
| RRIRGRPPRLPRPRPRPYQQPRP | 0.0771 |
| RRIRMRPPRLPRPRPRPGVGPRP | 0.841 |

| Sequence | shrunken log2 fold change |
| --- | --- |
| RRIRKRPPRLPRPRPRPHHYPRP | -0.737 |
| RRIRCRPPRLPRPRPRPKIWPRP | 0.121 |
| RRIRQRPPRLPRPRPRPRGYPRP | -0.00234 |
| RRIRPRPPRLPRPRPRPRSHPRP | 0.16 |
| RRIRRRPPRLPRPRPRPIGNPRP | 0.0912 |
| RRIRHRPPRLPRPRPRPSMCPRP | -0.448 |
| RRIRVRPPRLPRPRPRPYKIPRP | -0.726 |
| RRIRNRPPRLPRPRPRPWYAPRP | -0.533 |
| RRIRVRPPRLPRPRPRPHAYPRP | -0.473 |
| RRIRVRPPRLPRPRPRPSNMPRP | -0.124 |
| RRIRKRPPRLPRPRPRPSSEPRP | 0.2 |
| RRIRVRPPRLPRPRPRPIRQPRP | -0.294 |
| RRIRMRPPRLPRPRPRPVQYPRP | 0.0273 |
| RRIRQRPPRLPRPRPRPQVLPRP | 0.00177 |
| RRIRQRPPRLPRPRPRPSYWPRP | -0.0858 |
| RRIRFRPPRLPRPRPRPFLRPRP | -0.313 |
| RRIRERPPRLPRPRPRPGHKPRP | -0.324 |
| RRIRRRPPRLPRPRPRPRAWPRP | -0.0407 |
| RRIRHRPPRLPRPRPRPYNFPRP | -0.078 |
| RRIRFRPPRLPRPRPRPGKFPRP | 0.138 |
| RRIRHRPPRLPRPRPRPNRVPRP | -0.672 |
| RRIRGRPPRLPRPRPRPEGLPRP | 1.06 |
| RRIRCRPPRLPRPRPRPVYNPRP | -0.378 |
| RRIRYRPPRLPRPRPRPSQHPRP | -0.683 |
| RRIRVRPPRLPRPRPRPMCEPRP | 0.0553 |

| Sequence | shrunken log2 fold change |
| --- | --- |
| RRIRQRPPRLPRPRPRPTTSPRP | 0.1 |
| RRIRMRPPRLPRPRPRPIDPPRP | -0.0553 |
| RRIRYRPPRLPRPRPRPMNQPRP | -0.383 |
| RRIRHRPPRLPRPRPRPQCMPRP | -0.123 |
| RRIRKRPPRLPRPRPRPCGGPRP | 0.225 |
| RRIRERPPRLPRPRPRPDCFPRP | 0.316 |
| RRIRTRPPRLPRPRPRPKIIPRP | -0.211 |
| RRIRSRPPRLPRPRPRPVVLPRP | 0.124 |
| RRIRNRPPRLPRPRPRPVNLPRP | -0.0237 |
| RRIRFRPPRLPRPRPRPYQMPRP | -0.0843 |
| RRIRWRPPRLPRPRPRPRKGPRP | 0.612 |
| RRIRLRPPRLPRPRPRPTGDPRP | -0.00286 |
| RRIRTRPPRLPRPRPRPGFIPRP | -0.585 |
| RRIRTRPPRLPRPRPRPENPPRP | 0.261 |
| RRIRPRPPRLPRPRPRPLFNPRP | -0.444 |
| RRIRIRPPRLPRPRPRPDASPRP | -0.00609 |
| RRIRKRPPRLPRPRPRPEHKPRP | 0.295 |
| RRIRIRPPRLPRPRPRPCGFPRP | -0.0835 |
| RRIRFRPPRLPRPRPRPKTLPRP | -0.145 |
| RRIRTRPPRLPRPRPRPSREPRP | 0.427 |
| RRIRCRPPRLPRPRPRPSVGPRP | 0.0128 |
| RRIRGRPPRLPRPRPRPQTVPRP | 0.19 |
| RRIRLRPPRLPRPRPRPNVHPRP | -0.505 |
| RRIRNRPPRLPRPRPRPRSEPRP | 0.139 |
| RRIRYRPPRLPRPRPRPMIYPRP | -0.0142 |

| Sequence | shrunken log2 fold change |
| --- | --- |
| RRIRLRPPRLPRPRPRPGRKPRP | 0.0459 |
| RRIRGRPPRLPRPRPRPHSMPRP | 0.0488 |
| RRIRSRPPRLPRPRPRPQGMPRP | -0.124 |
| RRIRGRPPRLPRPRPRPYTVPRP | 0.0498 |
| RRIRSRPPRLPRPRPRPANVPRP | 0.218 |
| RRIRTRPPRLPRPRPRPSRKPRP | 0.0182 |
| RRIRIRPPRLPRPRPRPKALPRP | -0.0211 |
| RRIRNRPPRLPRPRPRPEYRPRP | -0.159 |
| RRIRIRPPRLPRPRPRPFQVPRP | 0.0102 |
| RRIRLRPPRLPRPRPRPISVPRP | -0.343 |
| RRIRNRPPRLPRPRPRPGLQPRP | -0.113 |
| RRIRHRPPRLPRPRPRPIGQPRP | -0.042 |
| RRIRIRPPRLPRPRPRPSTTPRP | -0.189 |
| RRIRYRPPRLPRPRPRPGYYPRP | -0.545 |
| RRIRERPPRLPRPRPRPTEWPRP | -0.551 |
| RRIRKRPPRLPRPRPRPNFGPRP | 0.252 |
| RRIRFRPPRLPRPRPRPEFRPRP | -0.0593 |
| RRIRIRPPRLPRPRPRPAMAPRP | -0.237 |
| RRIRNRPPRLPRPRPRPCARPRP | -0.213 |
| RRIRFRPPRLPRPRPRPNRMPRP | 0.0762 |
| RRIRKRPPRLPRPRPRPKEVPRP | 0.0319 |
| RRIRARPPRLPRPRPRPTLRPRP | 0.148 |
| RRIRMRPPRLPRPRPRPTVAPRP | 0.269 |
| RRIRHRPPRLPRPRPRPDLKPRP | -0.0314 |
| RRIRARPPRLPRPRPRPHSGPRP | -0.0576 |

| Sequence | shrunken log2 fold change |
| --- | --- |
| RRIRSRPPRLPRPRPRPTDTPRP | -0.214 |
| RRIRSRPPRLPRPRPRPSLNPRP | -0.142 |
| RRIRWRPPRLPRPRPRPRQWPRP | 0.0802 |
| RRIRDRPPRLPRPRPRPRIWPRP | 0.53 |
| RRIRSRPPRLPRPRPRPLTRPRP | 0.0286 |
| RRIRERPPRLPRPRPRPLQMPRP | -0.0246 |
| RRIRIRPPRLPRPRPRPRHGPRP | -0.136 |
| RRIRSRPPRLPRPRPRPAHCPRP | 0.0412 |
| RRIRIRPPRLPRPRPRPRYNPRP | -0.588 |
| RRIRMRPPRLPRPRPRPRWIPRP | 0.00451 |
| RRIRQRPPRLPRPRPRPKYNPRP | -0.879 |
| RRIRRRPPRLPRPRPRPNYTPRP | -0.44 |
| RRIRIRPPRLPRPRPRPFFDPRP | -0.417 |
| RRIRYRPPRLPRPRPRPKHTPRP | -0.567 |
| RRIRWRPPRLPRPRPRPHTGPRP | -0.233 |
| RRIRKRPPRLPRPRPRPDQIPRP | -0.0414 |
| RRIRKRPPRLPRPRPRPHPVPRP | 0.185 |
| RRIRNRPPRLPRPRPRPECHPRP | -0.0505 |
| RRIRTRPPRLPRPRPRPLCPPRP | -0.165 |
| RRIRWRPPRLPRPRPRPGHKPRP | -0.14 |
| RRIRYRPPRLPRPRPRPTSEPRP | -0.0408 |
| RRIRVRPPRLPRPRPRPAGTPRP | 0.146 |
| RRIRLRPPRLPRPRPRPVNRPRP | 0.199 |
| RRIRRRPPRLPRPRPRPTPTPRP | 1.14 |
| RRIRMRPPRLPRPRPRPFRAPRP | 0.452 |

Source: the supplement of paper PMC9112550, “Optimization of the antimicrobial peptide Bac7 by deep mutational scanning” (BMC Biology, 2022)
